Key:
[1] = molecular target: p145 (Streptococcus pyogenes serotype M5, UniProt P02977); details: FIG. 3
Experimental: The purified anti-TN peptide antibodies were tested for their ability to bind to p145.

[2] = tested on: B10.BR mice; experiment: Peptide-specific serum IgG titres of B10.BR mice immunised with peptides conjugated to diphtheria toxoid; format: in vivo; details: peptides conjugated to DT
From the text: FIG. 9: The geometric mean of peptide-specific serum IgG titres of B10.BR mice immunised with different peptides conjugated to diphtheria toxoid (DT). Control mice were immunised with vehicle (PBS). Five mice were immunised per group and error bars show the standard error of the mean (SEM). The highest titres were obtained after primary immunisation plus two booster injections. Although titres had decreased 43 days after the final boost (Day 71), they remained reasonably high.
Female B10.BR mice were immunized with TN18, TN19, J18 and J19 peptides conjugated to diphtheria toxoid (DT). The following immunization protocol was used.
The peptide specific titres in the murine sera samples on day 35, after primary immunization and two boosters, were analyzed.
The self-peptide titres throughout the immunization protocol were analyzed at day 20, day 27, day 35 and day 71.

[3] = tested on: GAS; details: cited from earlier work
[4] = tested on: multiple isolates of GAS; details: Pruksakorn et al., 1994a; cited from earlier work

Sequence | binding affinity of purified anti-TN peptide antibodies for p145 [1] | also measured
LRRDLDASNEAKKQVEMALEC [TN peptide 14] | highest binding affinities | –
QAEDKVKQSREAKNQVERALKQLEDKVQ [J18] | – | immunogenicity compared with the peptides disclosed in WO96/11944 [2]: improved immunogenicity
LRRDLDASREAKNQVERALEC [TN peptide 18] | highest binding affinities | –
LRRDLDAEDEAKKQVEKALEC [TN peptide 3] | highest binding affinities | –
LRRDLDAVNEAKKQVEKALEC [TN peptide 7] | highest binding affinities | –
LRRDLDAVREAKKQVEMALEC [TN peptide 11] | highest binding affinities | –
LRRDLDASREAKKQVEKALE [p145] | – | inhibition of in vitro killing mediated by human sera [3]: can inhibit in vitro killing mediated by human sera; opsonisation and killing of GAS by mouse antibodies raised against the peptide [4]: can opsonise and kill multiple isolates of GAS
QAEDKVKQSREAKNQVEMALKQLEDKVQ [J19] | – | immunogenicity compared with the peptides disclosed in WO96/11944 [2]: improved immunogenicity
LRRDLDASREAKNQVEMALEC [TN peptide 19] | highest binding affinities | –
LRRDLDAEREAKKQVERALEC [TN peptide 5] | highest binding affinities | –
